Source: US9279107B2, “Simplified basic media for human pluripotent cell culture” (WISCONSIN ALUMNI RESEARCH FOUNDATION, priority 2010, dated 2016)

B1: FGF6: FGF family member growth factor (protein, UniProt P10767 38-208, looked up)
Fibroblast growth factor 6: SPAGTRANNTLLDSRGWGTLLSRSRAGLAGEIAGVNWESGYLVGIKRQRRLYCNVGIGFHLQVLPDGRISGTHEENPYSLLEISTVERGVVSLFGVRSALFVAMNSKGRLYATPSFQEECKFRETLLPNNYNAYESDLYQGTYIALSKYGRVKRGSKVSPIMTVTHFLPRI
B2: NODAL (protein, UniProt Q96S42 238-347, looked up)
Nodal homolog: HHLPDRSQLCRKVKFQVDFNLIGWGSWIIYPKQYNAYRCEGECPNPVGEEFHPTNHAYIQSLLKRYQPHRVPSTCCAPVKTKPLSMLYVDNGRVLLDHHKDMIVEECGCL
notes: recombinant protein of the TGF-β pathway
B3: FGF4: FGF family member growth factor (protein, UniProt P08620 31-206, looked up)
Fibroblast growth factor 4: APTAPNGTLEAELERRWESLVALSLARLPVAAQPKEAAVQSGAGDYLLGIKRLRRLYCNVGIGFHLQALPDGRIGGAHADTRDSLLELSPVERGVVSIFGVASRFFVAMSSKGKLYGSPFFTDECTFKEILLPNNYNAYESYKYPGMFIALSKNGKTKKGNRVSPTMKVTHFLPRL

Assays:
[1] = system: foreskin cells; assay: Foreskin cell growth in DF5SFe-based media; set-up: species or system human; details: individual FGF added at 100 ng/ml for 96 h to DF5SFe minus FGF
Procedure: To determine growth factors that can help primary foreskin cell growth, individual growth factors contained in FBS were tested. The FGF family of growth factors has several members, one or more of which is commonly used for fibroblast culture. DF5SFe contains 100 ng/ml zebrafish recombinant FGF2. Each FGF family member was tested for its ability to support foreskin cell growth. Foreskin cells were aliquoted into the well of culture plates and incubated for 24 hours in DF5SFe minus FGF. Individual FGF types were added at 100 ng/ml for 96 h.

[2] = system: H1 cells; assay: NANOG mRNA expression; format: cell-based, human; details: added to DF5S; NODAL 100 ng/ml or TGF-β 2 ng/ml; compared to DF5S
Source text: DF5S was used to expand H1 cells. Cells grown in DF5S were more prone to differentiate than cells grown in TeSR™. However, H1 cells could be grown for several weeks (more than 15 passages), during which the cells maintained human ES cell morphology and high levels of OCT4 expression (FIG. 1E, FIG. 1F). […] DF5S+NODAL also supported pluripotency of the two tested human iPS cell lines, as determined by high expression of the pluripotency marker OCT4. All cells (hES cells and iPS cells) grown in DF5S with either NODAL or TGF-β maintained a normal karyotype after long-term passage.

[3] = system: H1 cells; assay: Oct4 expression by flow cytometry as indicator of pluripotency; format: cell-based, human; details: DF5SFe supplemented with NODAL at TeSR concentration
Procedure: As described in Example 3, human pluripotent cells, such as H1, H9, and iPS cells, could be grown and passaged over 15 times in DF5S but were prone to differentiate, such that extra care is needed to sustain pluripotency in DF5S. Because pluripotency could be maintained more easily in TeSR™, growth factors present in TeSR™ were added individually to DF5SFe used to grow H1 cells that were previously cultured in DF5S without differentiating to identify factors supporting long-term pluripotency. Cells were passaged approximately one day after reaching confluency, facilitating cell differentiation, and Oct4 expression, assessed by flow cytometry, was used as indicator of pluripotency.
Human pluripotent cells grown in DF5SFe elongated and lined up along each other, resembling a “spindle” shape just prior to differentiation. […] Thus, recombinant proteins of the TGF-β pathway were tested for their ability to support long-term pluripotency.

[4] = system: iPS cells; assay: Long-term pluripotency of lentiviral iPS cell lines; format: cell-based, human; details: added to DF5SFe; TGF-β 2 ng/ml or NODAL 100 ng/ml
Source text: Human ES cell lines, such as H1 and H9 have a culture history that includes exposure to various complex culture components, such as FBS, feeder cells, and knockout serum replacer. Exposure to these components could conceivably create dependency on these components and, consequently, alter cellular response to simplified media. Culture history might play a lesser role for iPS cells, derived from reprogrammed somatic cells, as derivation conditions are less complex. Therefore, different factors were tested with two original lentiviral iPS cell lines (Yu, et al., Science 318:1917 (2007)) grown in DF5SFe. Cells were transferred from MEF plates directly into DF5SFe medium for one passage and then passaged into various growth factor conditions. […] Pluripotency surface markers SSEA4, SSEA3, Tra-1-60, and Tra-1-81 were also expressed. Cells with normal karyotypes were continuously maintained for more than 20 passages. The cells were capable of forming teratomas 5-7 weeks after injection into severe combined immunodeficient (SCID) mice.

Molecule	foreskin cell growth [1]	NANOG mRNA level [2]	Oct4 expression [3]	long-term pluripotency [4]
B1	supported foreskin cell growth most effectively			
B2		significantly higher levels of NANOG mRNA	sustained high Oct4 expression	supported long-term pluripotency of iPS cells
B3	supported foreskin cell growth most effectively			
